In patent publication US9228015B2, “Nogo receptor antagonists and methods of increasing neurite outgrowth” (Biogen Idec MA Inc., priority 2006, dated 2016):

How the values were obtained:
OM-gp + sNogoR344-Fc = target: T1, OM-gp + sNogoR344-Fc (Rattus norvegicus, UniProt Q99M75, A303T/C287S/C43R/E284G/T53A); assay: ELISA: inhibition of OM-gp binding to sNogoR344-Fc
T1 construct: amino acid residues 26-344 of rat Nogo receptor-1; made in house; CHO (DG44) is described only for sNogoR310-Fc
T1 sequence (Q99M75 26-344 C43R/T53A/E284G/C287S/A303T): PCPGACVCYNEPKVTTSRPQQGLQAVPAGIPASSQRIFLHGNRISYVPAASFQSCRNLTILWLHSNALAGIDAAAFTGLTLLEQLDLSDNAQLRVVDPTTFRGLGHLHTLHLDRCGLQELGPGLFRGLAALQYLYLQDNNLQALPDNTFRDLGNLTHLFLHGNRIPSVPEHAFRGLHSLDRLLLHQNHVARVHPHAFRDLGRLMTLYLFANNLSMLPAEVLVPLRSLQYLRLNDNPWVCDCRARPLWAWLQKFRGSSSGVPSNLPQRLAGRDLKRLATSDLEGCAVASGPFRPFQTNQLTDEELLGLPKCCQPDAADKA
Protocol: 0.5 μg of a soluble Nogo receptor-1 fusion protein comprising amino acid residues 26-344 of rat Nogo receptor-1 and the hinge and Fc region of the rat IgG1 molecule (sNogoR344-Fc) produced as described below was immobilized on […] of protein-A- or wheatgerm agglutinin-conjugated SPA beads (Amersham Pharmacia Biotech) for 2 hours at 25° C. SPA beads coupled with Fc-sNogoR-1, anti-Nogo receptor-1 mAb and 1 μl ^125I-Nogo66 (Amersham, 2000 Ci/mmol, 1 nM) in […] of the HEPES-buffered incubation medium (10 mM HEPES, pH 7.4, 0.1% bovine serum albumin, 0.1% ovalbumin, 2 mM MgCl2, 2 mM CaCl2 and protease inhibitors) was added to each sample well. After 16 hours, radioactivity was measured in quadruplicate samples using a TopCount® (Packard). IC50 values were calculated from a curve-fit analysis (FIG. 3) (PRISM, GraphPad Software, NJ). In some experiments, we also used AP-ligand conjugates (e.g. AP-Nogo66) and detected binding by monitoring alkaline phosphatase activity. We also assayed the ability of the mAbs to block binding of the ligands MAG-Fc and AP-OM-gp to Nogo receptor-1.
Monoclonal antibodies 7E11, 5B10, 1H2, 3G5 and 2F7 all inhibited binding of Nogo66, MAG and OM-gp to sNogoR344-Fc. The calculated IC50 for Nogo66 for 7E11 and 1H2 were 400 nM and 60 nM, respectively. The data from ELISAs monitoring mAb-mediated inhibition of binding of the three ligands to Nogo receptor-1 are summarized in Table 6.
The percent displacement is shown at 30 nM antibody and the EC50 for certain mAbs determined from curve-fit analysis as described. “-” indicates no detectable activity and “ND” indicates not determined.
We also performed ELISA binding assays using the Fab-phage 141)5.

[1] = target: T2, panel of Nogo receptor-1 polypeptides (sNogoR310-Fc, sNogoR344-Fc, p-617, p-618, p-4, p-5) (Rattus norvegicus, UniProt Q99M75); assay: Antibody specificity ELISA with a panel of Nogo receptor-1 polypeptides; assay type: binding
T2 construct: made in house
Description: To determine the specificity of the monoclonal and Fab-phage antibodies produced in Examples 1 and 2, we performed an ELISA using a panel of Nogo receptor-1 polypeptides. The panel consisted of sNogoR310-Fc (a fusion protein comprising amino acids 26-310 of rat Nogo receptor-1 and a rat Fc fragment), sNogoR344-Fc (see supra), polypeptide p-617 (SEQ ID NO: 1), polypeptide p-618 (a 19-amino acid polypeptide from the LRR7 region of rat Nogo receptor-1; FIG. 2; SEQ ID NO: 11) and polypeptides p-4 and p-5 (polypeptides from the LRR5 and LRRCT regions of Nogo receptor-1, respectively). Ovalbumin and BSA were used as controls.

[2] = target: T3, cells expressing human Nogo receptor-1 (Homo sapiens, UniProt Q9BZR6); assay: Immunohistochemistry on fixed and live COS-7 or 293 cells expressing human Nogo receptor-1; assay type: cell-based; details: immunohistochemical staining
T3 construct: expressed in transfected cells; host or cells: COS-7 or 293 cells
T3 sequence (Q9BZR6 27-447): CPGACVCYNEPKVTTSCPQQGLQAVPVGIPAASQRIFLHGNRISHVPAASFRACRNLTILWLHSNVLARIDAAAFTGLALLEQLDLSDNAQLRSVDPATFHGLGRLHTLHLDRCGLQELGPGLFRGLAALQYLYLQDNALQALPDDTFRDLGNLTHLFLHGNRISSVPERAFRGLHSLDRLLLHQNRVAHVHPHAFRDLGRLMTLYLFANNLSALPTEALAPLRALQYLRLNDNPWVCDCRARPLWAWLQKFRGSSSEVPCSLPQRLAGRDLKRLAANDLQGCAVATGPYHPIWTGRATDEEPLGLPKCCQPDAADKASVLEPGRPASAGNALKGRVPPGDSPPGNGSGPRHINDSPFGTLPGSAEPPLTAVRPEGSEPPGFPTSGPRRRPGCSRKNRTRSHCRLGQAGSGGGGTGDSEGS
Protocol: To further characterize the binding properties of anti-Nogo receptor-1 mAbs produced as described in Example 1, we compared binding to both fixed and live COS-7 or 293 cells expressing rat or human Nogo receptor-1.
Nogo receptor-1 transfected and non-transfected cells were plated in 8-well Lab-Tek™ culture slides, fixed with 4% paraformaldehyde for 15 minutes, blocked with 10% normal goat serum, 0.1% Triton X-100 in PBS for 1 hour. Mab 7E11 was added at 15 μg/ml and 1.5 μg/ml in blocking solution and incubated for 2 hours at room temperature; Alexa®-conjugated secondary antibody anti-mouse (Molecular Probes) was incubated at a 1:300 dilution in blocking solution for 1 hour; DAPI was added at 5 μg/ml to the secondary antibody to label all nuclei.
Transfected and non-transfected cells were plated in 8 well Lab-Tek™ culture slides, blocked with FACS buffer (containing 4% donor horse serum) for 30 minutes at 4° C., incubated with 7E11 at 15 μg/ml and 1.5 μg/ml in FACS buffer for 1 hour at 4° C., rinsed and incubated with secondary antibody anti-mouse-Alexa® (1:300 in FACS buffer) for 30 minutes at 4° C.

inhibition of binding of OM-gp to sNogoR344-Fc (OM-gp + sNogoR344-Fc): inhibited
EC50 (OM-gp + sNogoR344-Fc; curve-fit analysis): 150 nM
binding to polypeptide p-617 (SEQ ID NO: 1) [1]: specifically bound
binding to fixed and live cells expressing human Nogo receptor-1 [2]: bound
B1: 7E11: murine monoclonal anti-Nogo receptor-1 antibody, immunogen rat Nogo receptor-1 residues 110-125, IgG1 kappa, ATCC PTA-4587 (antibody, V domains shown)
VH: VQLQESGAELVMPGASVKMSCKASGYTFTDYWMHWVKQRPGQGLEWIGAIDPSDSYSSYNQNFKGKATLTVDGSSSTAYMQLSSLTSEDSAVYYCARRITEAGAWFAYWGQGTTVT
VL: MKLPVRLLVLMFWIPASSSDVVMTQTPLSLPVSLGDQASISCRSSQSLVHSNGNTYLHWYLQKPGQSPKLLIYKVSNRFSGVPDRFSGSGSGTDFTLKISRVDAEDLGVYFCSQSTHVPFTFGGGTKLEIKRADAAPTVSISHH
modifications: 7E11 heavy chain; 7E11 light chain
notes: murine monoclonal anti-Nogo receptor-1 antibody, immunogen rat Nogo receptor-1 residues 110-125, IgG1 kappa, ATCC PTA-4587
